In PMC4943463:

Target: A3B-CTD (APOBEC3B C-terminal domain, wild type) (Homo sapiens, UniProt Q9UH17 187-382)
Test: NMR titration

Sequence of A3B-CTD (APOBEC3B C-terminal domain, wild type) (Q9UH17 187-382): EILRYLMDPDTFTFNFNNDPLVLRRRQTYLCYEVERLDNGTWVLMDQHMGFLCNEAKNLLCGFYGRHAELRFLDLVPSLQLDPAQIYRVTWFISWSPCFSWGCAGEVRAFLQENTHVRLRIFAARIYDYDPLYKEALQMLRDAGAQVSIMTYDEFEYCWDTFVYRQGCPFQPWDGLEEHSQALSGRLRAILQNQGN

B1: 9-nt U-containing oligonucleotide ATTTUATTT (ssDNA)
DNA: ATTTUATTT
modifications: deoxyuridine at position 5 (DNA oligonucleotide, U in place of target C)
Work on B1 yielded a Kd of 119 ± 26 µM.
